According to article PMC9426472, “Blockade of the Adenylate Cyclase Toxin Synergizes with Opsonizing Antibodies to Protect Mice against Bordetella pertussis” (mBio, 2022):

B1: RTX751 (RTX domain of the Bordetella pertussis adenylate cyclase toxin, residues 751 to 1706) (domain or fragment)
chain: ANSDGLRKMLADLQAGWNASSVIGVQTTEISKSALELAAITGNADNLKSVDVFVDRFVQGERVAGQPVVLDVAAGGIDIASRKGERPALTFITPLAAPGEEQRRRTKTGKSEFTTFVEIVGKQDRWRIRDGAADTTIDLAKVVSQLVDANGVLKHSIKLDVIGGDGDDVVLANASRIHYDGGAGTNTVSYAALGRQDSITVSADGERFNVRKQLNNANVYREGVATQTTAYGKRTENVQYRHVELARVGQLVEVDTLEHVQHIIGGAGNDSITGNAHDNFLAGGSGDDRLDGGAGNDTLVGGEGQNTVIGGAGDDVFLQDLGVWSNQLDGGAGVDTVKYNVHQPSEERLERMGDTGIHADLQKGTVEKWPALNLFSVDHVKNIENLHGSRLNDRIAGDDQDNELWGHDGNDTIRGRGGDDILRGGLGLDTLYGEDGNDIFLQDDETVSDDIDGGAGLDTVDYSAMIHPGRIVAPHEYGFGIEADLSREWVRKASALGVDYYDNVRNVENVIGTSMKDVLIGDAQANTLMGQGGDDTVRGGDGDDLLFGGDGNDMLYGDAGNDTLYGGLGDDTLEGGAGNDWFGQTQAREHDVLRGGDGVDTVDYSQTGAHAGIAAGRIGLGILADLGAGRVDKLGEAGSSAYDTVSGIENVVGTELADRITGDAQANVLRGAGGADVLAGGEGDDVLLGGDGDDQLSGDAGRDRLYGEAGDDWFFQDAANAGNLLDGGDGRDTVDFSGPGRGLDAGAKGVFLSLGKGFASLMDEPETSNVLRNIENAVGSARDDVLIGDAGANVLNGLAGNDVLSGGAGDDVLLGDEGSDLLSGDAGNDDLFGGQGDDTYLFGVGYGHDTIYESGGGHDTIRINAGADQLWFARQGNDLEIRILGTDDALTVHDWYRDADHRVEIIHAANQAVDQAGIEKLVEAMAQYPDPGAAAAAPPAARVPDTLMQSLAVNWR
notes: Cloned into the NheI and BamHI sites of pET28a+; The vector may add N-terminal residues (His tag, thrombin site) before the Strep tag; also called recombinant RTX751

Columns and labels:
[1] = target: integrin αMβ2 (Homo sapiens) (UniProt P11215); experiment: SPR; settings: cited from earlier work
[2] = target: T1, soluble, purified mouse αMβ2 integrin (ectodomain heterodimer) (mouse, UniProt P05555 17-1105; P11835 24-701); experiment: SPR; Biacore X100; M1F5 Fab amine-coupled to both flow cells of a CM5 chip (~2,500 RU); ~10 RU RTX (10 nM) captured on flow cell 2 in each cycle; mouse αMβ2 at 6.13 to 200 nM flowed for 180 s, dissociation 600 s; 10 mM HEPES pH 7.4, 150 mM NaCl, 1 mM CaCl2, 1 mM MgCl2, 0.05% Tween 20; global 1:1 binding model; settings: both partners purified
T1 construct: also called CR3; MAC-1
T1 sequence (P05555 other isoform, or with tags, fused parts or gaps, chain 1 of 2): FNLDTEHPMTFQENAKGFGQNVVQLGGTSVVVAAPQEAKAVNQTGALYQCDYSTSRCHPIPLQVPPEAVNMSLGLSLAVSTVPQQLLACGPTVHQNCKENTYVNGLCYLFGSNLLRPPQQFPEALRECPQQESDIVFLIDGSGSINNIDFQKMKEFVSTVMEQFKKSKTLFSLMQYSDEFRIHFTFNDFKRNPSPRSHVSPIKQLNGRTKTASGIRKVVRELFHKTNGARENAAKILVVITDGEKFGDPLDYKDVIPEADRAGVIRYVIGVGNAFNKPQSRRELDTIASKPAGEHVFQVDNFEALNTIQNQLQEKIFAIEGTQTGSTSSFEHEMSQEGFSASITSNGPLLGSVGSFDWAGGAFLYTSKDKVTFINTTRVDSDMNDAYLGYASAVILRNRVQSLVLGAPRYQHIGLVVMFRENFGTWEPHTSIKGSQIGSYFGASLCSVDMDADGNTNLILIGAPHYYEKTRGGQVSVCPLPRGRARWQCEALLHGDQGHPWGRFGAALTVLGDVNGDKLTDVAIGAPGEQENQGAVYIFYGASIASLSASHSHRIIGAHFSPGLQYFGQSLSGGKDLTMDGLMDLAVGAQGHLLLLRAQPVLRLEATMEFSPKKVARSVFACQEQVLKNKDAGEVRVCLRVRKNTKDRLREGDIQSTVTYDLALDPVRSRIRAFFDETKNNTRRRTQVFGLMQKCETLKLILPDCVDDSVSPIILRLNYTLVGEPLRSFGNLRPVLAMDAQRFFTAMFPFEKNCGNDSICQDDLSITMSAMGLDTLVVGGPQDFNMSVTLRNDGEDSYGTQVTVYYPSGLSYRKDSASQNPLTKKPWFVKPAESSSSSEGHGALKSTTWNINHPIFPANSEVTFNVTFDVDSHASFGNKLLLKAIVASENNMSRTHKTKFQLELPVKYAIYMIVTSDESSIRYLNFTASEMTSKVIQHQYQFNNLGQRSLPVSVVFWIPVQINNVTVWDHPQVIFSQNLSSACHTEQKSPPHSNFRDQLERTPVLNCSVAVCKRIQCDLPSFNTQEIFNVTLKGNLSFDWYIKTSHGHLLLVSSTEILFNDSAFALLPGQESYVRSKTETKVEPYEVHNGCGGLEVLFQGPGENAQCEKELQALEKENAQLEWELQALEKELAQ
T1 sequence (P11835 other isoform, or with tags, fused parts or gaps, chain 2 of 2): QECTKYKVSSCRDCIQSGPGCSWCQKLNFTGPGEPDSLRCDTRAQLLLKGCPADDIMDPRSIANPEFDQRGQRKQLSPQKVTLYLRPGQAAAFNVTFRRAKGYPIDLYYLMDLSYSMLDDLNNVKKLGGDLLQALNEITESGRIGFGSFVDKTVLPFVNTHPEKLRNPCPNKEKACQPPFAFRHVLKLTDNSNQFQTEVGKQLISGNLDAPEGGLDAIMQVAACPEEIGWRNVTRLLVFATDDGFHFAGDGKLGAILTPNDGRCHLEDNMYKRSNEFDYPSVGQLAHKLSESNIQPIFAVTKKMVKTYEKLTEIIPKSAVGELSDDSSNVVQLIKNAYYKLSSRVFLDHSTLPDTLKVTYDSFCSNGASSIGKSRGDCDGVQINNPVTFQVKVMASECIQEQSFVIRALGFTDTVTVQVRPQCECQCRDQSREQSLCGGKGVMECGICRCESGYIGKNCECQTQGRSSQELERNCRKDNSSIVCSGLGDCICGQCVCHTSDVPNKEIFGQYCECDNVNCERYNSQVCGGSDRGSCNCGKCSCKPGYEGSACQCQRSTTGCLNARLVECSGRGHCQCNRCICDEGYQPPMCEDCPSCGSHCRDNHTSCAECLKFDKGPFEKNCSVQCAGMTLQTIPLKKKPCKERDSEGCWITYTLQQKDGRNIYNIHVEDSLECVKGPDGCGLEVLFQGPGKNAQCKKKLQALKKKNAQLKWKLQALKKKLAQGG

Row | Molecule | Kd [1] [nM] | Kd [2] [nM] | koff [2] [s⁻¹] | kon [2] [M⁻¹ s⁻¹]
1 | adenylate cyclase toxin RTX751 (from UniProt P0DKX7) | 57 | – | – | –
2 | B1 | – | 52 | 0.0028 | 55000
